B1: ATRAP-HA [not stated] / GST-AP4μ^160–453 [not stated] (parent complex)
chain 1: MELPAVNLKVILLGHWLLTTWGCIVFSGSYAWANFTILALGVWAVAQRDSIDAISMFLGGLLATIFLDIVHISIFYPRVSLTDTGRFGVGMAILSLLLKPLSCCFVYHMYRERGGELLVHTGFLGSSQDRSAYQTIDSAEAPADPFAVPEGRSQDARGY
chain 2: QQSKVAPSSAASRPVLSSRSDQSQKNEVFLDVVERLSVLIASNGSLLKVDVQGEIRLKSFLPSGSEMRIGLTEEFCVGKSELRGYGPGIRVDEVSFHSSVNLDEFESHRILRLQPPQGELTVMRYQLSDDLPSPLPFRLFPSVQWDRGSGRLQVYLKLRCDLLSKSQALNVRLHLPLPRGVVSLSQELSSPEQKAELAEGALRWDLPRVQGGSQLSGLFQMDVPGPPGPPSHGLSTSASPLGLGPASLSFELPRHTCSGLQVRFLRLAFRPCGNANPHKWVRHLSHSDAYVIRI

The variants in this assay derive from B1. The assay is described as follows: GST pull-down, immunoblot quantification; bound protein normalized to the 2% loading; sum of both groups normalized to 1 in each replicate; n = 4, mean ± SD; parent: 0.71; read off a plot. On the technique in general: Immunoblotting shows a protein as a band on a membrane.
Turning to chain 1 Y133A, the response is around 0.29.

Source of the values: publication PMC12519218 (2025).
